{"source": "paper PMC6601351", "about": "(Structure (London, England : 1993), 2018)", "molecules": {"B1": {"name": "KNL1_(1–150) (domain or fragment, human, UniProt Q8NG31 1-150, looked up)", "chain": "MDGVSSEANEENDNIERPVRRRHSSILKPPRSPLQDLRGGNERVQESNALRNKKNSRRVSFADTIKVFQTESHMKIVRKSEMEGCSAMVPSQLQLLPPGFKRFSCLSLPETETGENLLLIQNKKLEDNYCEITGMNTLLSAPIHTQMQQK"}, "B2": {"name": "KNL1_(1–80) (domain or fragment, human, UniProt Q8NG31 1-80, looked up)", "chain": "MDGVSSEANEENDNIERPVRRRHSSILKPPRSPLQDLRGGNERVQESNALRNKKNSRRVSFADTIKVFQTESHMKIVRKS"}, "B3": {"name": "KNL1_(23–80) (domain or fragment, human, UniProt Q8NG31 23-80, looked up)", "chain": "HSSILKPPRSPLQDLRGGNERVQESNALRNKKNSRRVSFADTIKVFQTESHMKIVRKS"}}, "test_in_all_cases": "ITC", "key": {"PP1α_(7–330) (human)": {"target": "PP1α_(7–330) (human) (UniProt P62136)"}, "PP1γ_(7–323)": {"target": "PP1γ_(7–323) (human, UniProt P36873 7-323)", "sequence (P36873 7-323)": "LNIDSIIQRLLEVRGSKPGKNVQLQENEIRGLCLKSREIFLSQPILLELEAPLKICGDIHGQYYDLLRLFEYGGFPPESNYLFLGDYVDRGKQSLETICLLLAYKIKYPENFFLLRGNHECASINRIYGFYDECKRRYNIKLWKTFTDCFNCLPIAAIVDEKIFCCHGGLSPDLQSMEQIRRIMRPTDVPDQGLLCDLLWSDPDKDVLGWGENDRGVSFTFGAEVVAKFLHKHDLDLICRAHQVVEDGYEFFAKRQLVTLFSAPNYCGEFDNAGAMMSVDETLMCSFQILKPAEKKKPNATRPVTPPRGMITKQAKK"}, "PP1γ_(7–300)": {"target": "PP1γ_(7–300) (human, UniProt P36873 7-300)", "sequence (P36873 7-300)": "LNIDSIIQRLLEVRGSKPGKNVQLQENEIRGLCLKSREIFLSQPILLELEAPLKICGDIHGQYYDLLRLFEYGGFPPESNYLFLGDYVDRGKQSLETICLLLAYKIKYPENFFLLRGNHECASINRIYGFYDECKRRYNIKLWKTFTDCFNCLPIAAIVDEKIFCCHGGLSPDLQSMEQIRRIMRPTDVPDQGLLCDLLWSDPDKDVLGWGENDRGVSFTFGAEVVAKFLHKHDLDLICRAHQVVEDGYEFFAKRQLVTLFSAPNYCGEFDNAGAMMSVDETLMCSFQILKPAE"}}, "data": [{"molecule": "KNL1_(1–80) (from UniProt Q8NG31 1-80) (domain or fragment)", "values": [{"measurement": "Kd", "setting": "PP1α_(7–330) (human)", "value": 46.4, "unit": "nM"}, {"measurement": "dH", "setting": "PP1α_(7–330) (human)", "value": -22.6, "unit": "kcal/mol"}]}, {"molecule": "KNL1_(1–80)SILK/AAAA (SILK_(dead)) (from UniProt Q8NG31 1-80) (domain or fragment)", "values": [{"measurement": "Kd", "setting": "PP1α_(7–330) (human)", "value": 228, "unit": "nM"}, {"measurement": "dH", "setting": "PP1α_(7–330) (human)", "value": -21.5, "unit": "kcal/mol"}]}, {"molecule": "KNL1_(1–80)S60D (from UniProt Q8NG31 1-80) (domain or fragment)", "values": [{"measurement": "Kd", "setting": "PP1α_(7–330) (human)", "value": 236, "unit": "nM"}, {"measurement": "dH", "setting": "PP1α_(7–330) (human)", "value": -30.7, "unit": "kcal/mol"}]}, {"molecule": "KNL1_(1–80)S24AS25A (from UniProt Q8NG31 1-80) (domain or fragment)", "values": [{"measurement": "Kd", "setting": "PP1α_(7–330) (human)", "value": 93.5, "unit": "nM"}, {"measurement": "dH", "setting": "PP1α_(7–330) (human)", "value": -21.5, "unit": "kcal/mol"}]}, {"molecule": "KNL1_(1–80)S60A (from UniProt Q8NG31 1-80) (domain or fragment)", "values": [{"measurement": "Kd", "setting": "PP1α_(7–330) (human)", "value": 154, "unit": "nM"}, {"measurement": "dH", "setting": "PP1α_(7–330) (human)", "value": -20.1, "unit": "kcal/mol"}]}, {"molecule": "KNL1_(1–80)S56D (from UniProt Q8NG31 1-80) (domain or fragment)", "values": [{"measurement": "Kd", "setting": "PP1α_(7–330) (human)", "value": 14.7, "unit": "nM"}, {"measurement": "dH", "setting": "PP1α_(7–330) (human)", "value": -12.4, "unit": "kcal/mol"}]}, {"molecule": "KNL1_(23–80) (from UniProt Q8NG31 23-80) (domain or fragment)", "values": [{"measurement": "Kd", "setting": "PP1α_(7–330) (human)", "value": 89, "unit": "nM"}, {"measurement": "dH", "setting": "PP1α_(7–330) (human)", "value": -13.7, "unit": "kcal/mol"}]}, {"molecule": "KNL1_(1–80)S24DS25D (from UniProt Q8NG31 1-80) (domain or fragment)", "values": [{"measurement": "Kd", "setting": "PP1α_(7–330) (human)", "value": 267, "unit": "nM"}, {"measurement": "dH", "setting": "PP1α_(7–330) (human)", "value": -10.9, "unit": "kcal/mol"}]}, {"molecule": "B1", "values": [{"measurement": "Kd", "setting": "PP1γ_(7–323)", "value": 55.2, "unit": "nM"}, {"measurement": "dH", "setting": "PP1γ_(7–323)", "value": -9.3, "unit": "kcal/mol"}]}, {"molecule": "B2", "values": [{"measurement": "Kd", "setting": "PP1γ_(7–323)", "value": 38.3, "unit": "nM"}, {"measurement": "dH", "setting": "PP1γ_(7–323)", "value": -8.6, "unit": "kcal/mol"}]}, {"molecule": "B3", "values": [{"measurement": "Kd", "setting": "PP1γ_(7–323)", "value": 52.4, "unit": "nM"}, {"measurement": "dH", "setting": "PP1γ_(7–323)", "value": -10, "unit": "kcal/mol"}, {"measurement": "Kd", "setting": "PP1γ_(7–300)", "value": 82, "unit": "nM"}, {"measurement": "dH", "setting": "PP1γ_(7–300)", "value": -28.3, "unit": "kcal/mol"}]}]}
